Measurements as given in US20250353931A1 (CHIMERIS UK, published 2025).

Target: CD3 on T cells (Jurkat T cells; primary human T cells) (human, UniProt P07766 23-207; P04234 22-171; P09693 23-182)
Assay: flow cytometry on Jurkat T cells, APC-conjugated anti-His tag secondary antibody
Procedure: Each multi-specific reagent was then screened for binding to Jurkat T cells. Jurkat T cells were plated into individual wells of a 96-well plate (˜100,000 cells per well in 200 ul ImmunoCult™-XF T Cell Expansion Medium (StemCell Technologies)). […] As a control, CHO cell culture medium alone was added. Following incubation for two hours, cells were washed and stained in 50 μl FACS buffer (PBS (Gibco)/2% FBS (LabTech)) containing a 1/100 dilution of an APC-conjugated anti-His tag secondary antibody (BioLegend). Cells were washed again and resuspended in 100 μl FACS buffer plus 0.1 μg/ml DAPI live/dead staining dye (Roche). Cell samples were run on a MACSQuant® Analyzer 10 Flow Cytometer and analyzed using the FlowJo (v10) software.

Chain of CD3 on T cells (Jurkat T cells; primary human T cells) (P07766 23-207 limits assumed, chain 1 of 3): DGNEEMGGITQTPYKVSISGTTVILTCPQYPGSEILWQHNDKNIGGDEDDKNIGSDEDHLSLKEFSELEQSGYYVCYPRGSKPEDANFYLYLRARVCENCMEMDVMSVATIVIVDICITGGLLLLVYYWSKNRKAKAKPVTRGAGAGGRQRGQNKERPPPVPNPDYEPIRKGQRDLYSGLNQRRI
Chain of CD3 on T cells (Jurkat T cells; primary human T cells) (P04234 22-171 limits assumed, chain 2 of 3): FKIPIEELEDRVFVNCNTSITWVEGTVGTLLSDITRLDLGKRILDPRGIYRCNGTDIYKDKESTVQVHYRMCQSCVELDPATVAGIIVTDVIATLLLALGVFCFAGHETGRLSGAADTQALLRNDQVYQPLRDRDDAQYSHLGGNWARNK
Chain of CD3 on T cells (Jurkat T cells; primary human T cells) (P09693 23-182 limits assumed, chain 3 of 3): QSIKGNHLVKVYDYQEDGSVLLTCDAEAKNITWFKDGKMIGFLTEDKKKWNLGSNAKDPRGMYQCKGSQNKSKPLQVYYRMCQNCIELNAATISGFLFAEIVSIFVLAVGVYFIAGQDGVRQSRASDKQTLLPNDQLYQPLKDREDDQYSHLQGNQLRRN

B1: CM04P (anti-PEG _ anti-EpCAM) (bispecific antibody)
chain: QIQLVQSGPELKKPGETVKISCKASGYTFKNYGMNWVKQAPGKGLKWMGWINTYTGQPIYANDFKGRFAFSLETSASTAYLQINNLKNEDTATYFCARDWGPYWGQGTLVIVSASPNSASHSGSAPQTSSAPGSQNIMMTQSPSSLAVSAGEKVTVNCKSSQSVLYSSNQMNYLAWYQQKPGQSPKLLIYWASTRESGVPDRFTGSGSGTDFTLTISSVQTEDLAVYYCLQYLSSWTFGGGTKLEIKGGSSRSSSSGGGGSGGGGQVKLQQSGPELKKPGETVKISCKASGYTFTNYGMNWVKQAPGKGLKWMGWINTYTGESTYADDFKGRFAFSLETSASAAYLQINNLKNEDTATYFCARFAIKGDYWGQGTTVTVSSSPNSASHSGSAPQTSSAPGSQDIVLTQSPFSNPVTLGTSASISCRSTKSLLHSNGITYLYWYLQKPGQSPQLLIYQMSNLASGVPDRFSSSGSGTDFTLRISRVEAEDVGVYYCAQNLEIPRTFGGGTKLEIKGGGGSHHHHHHHH
notes: Intended as a negative control; also called αPEG/αEPCAM
binding result: no binding (tested: 20 µl of CHO culture supernatant)
